B1: TCR3 (TCR, V domains shown)
V domain 1: AQKVTQAQTEISVVEKEDVTLDCVYETRDTTYYLFWYKQPPSGELVFLIRRNSFDEQNEISGRYSWNFQKSTSSFNFTITASQVVDSAVYFCALSVLRMDSSYKLIFGSGTRLLVRP
V domain 2: NAGVTQTPKFRVLKTGQSMTLLCAQDMNHEYMYWYRQDPGMGLRLIHYSVGEGTTAKGEVPDGYNVSRLKKQNFLLGLESAAPSQTSVYFCASSLQGAGQPQHFGDGTRLSILE
B2: TCR2 (TCR, V domains shown)
V domain 1: QKEVEQNSGPLSVPEGAIASLNCTYSDRGSQSFFWYRQYSGKSPELIMSIYSNGDKEDGRFTAQLNKASQYVSLLIRDSQPSDSATYLCAVNIPFSNSGGYQKVTFGTGTKLQVIP
V domain 2: NAGVTQTPKFRVLKTGQSMTLLCAQDMNHEYMYWYRQDPGMGLRLIHYSVGEGTTAKGEVPDGYNVSRLKKQNFLLGLESAAPSQTSVYFCASRHPGQYNQPQHFGDGTRLSILE
B3: TCR1 (TCR, V domains shown)
V domain 1: KQEVTQIPAALSVPEGENLVLNCSFTDSAIYNLQWFRQDPGKGLTSLLLIQSSQREQTSGRLNASLDKSSGRSTLYIAASQPGDSATYLCAAMKTSYDKVIFGPGTSLSVIP
V domain 2: GEEVAQTPKHLVRGEGQKAKLYCAPIKGHSYVFWYQQVLKNEFKFLISFQNENVFDETGMPKERFSAKCLPNSPCSLEIQATKLEDSAVYFCASSQGQGGYGYTFGSGTRLTVVE

Molecular target: MAGE-B2 peptide-MHC (…/HLA-A*02:01) on cells (human)
Assay: cell-based or functional assay

Row | Binder | EC90 (peptide concentration), T2/peptide cytotoxicity assay | E:T EC50, cytotoxicity against MAGE-B2+ MAGE-A4+ cancer cell lines | E:T EC50, cytotoxicity against MAGE-B2+ MAGE-A4- cancer cell lines
1 | B1 | ≤ 0.01 µM | – | –
2 | B2 | ≤ 0.01 µM | 0.01 E:T ratio | ~0.07 E:T ratio
3 | B3 | ≤ 0.01 µM | – | –

— patent publication US20240100162A1 (Amgen, published 2024)
